Key:
human EphA2-Fc = target: T1, human EphA2-Fc (human, UniProt P29317 25-534, limits assumed); assay: KinExA, solution equilibrium titration with human EphA2-Fc
T1 construct: not shown: Fc part; origin and limits not described
Procedure: Protein concentrations were calculated by the BCA method. […] Coated beads were then separated from unreacted EphA2-Fc using a gentle pulse spin and blocked for approximately 2 h at room temperature with 1 M Tris, pH 8.0, bovine serum albumin 10 mg/mL. Beads were then resuspended in 30 mL of run buffer (PBS, pH 7.4-0.02% NaN₃) and packed into a column. […] The amount of free IgG in the samples was derived from the fluorescence signal obtained after the passing of Cy5-labeled goat anti-human IgG F(ab′)₂ (typically 0.5-2 μg/ml; Jackson ImmunoResearch Laboratories, West Grove, Pa.) through the column. Dissociation constants (KDs) were determined by fitting the individual equilibrium titration data to a 1:1 binding model using the KinExA Pro 1.0.3. software.

human C1q (Quidel) = target: T2, human C1q (Quidel) (human, UniProt P02745 23-245; P02746 28-253; P02747 29-245); assay: SPR (BIAcore 3000), IgG immobilised, soluble human C1q, equilibrium fit
T2 construct: Bought protein (Quidel, CA); In the CDC assays C1q came with normal human serum complement; also called complement protein C1q; soluble human C1q
Procedure: Protein concentrations were calculated by the bicinchoninic acid methods. The different human IgG1s were coupled to the dextran matrix of a CM5 sensor chip (Pharmacia Biosensor) using an Amine Coupling Kit as described (Johnsson et al., 1991, Anal. Biochem. 198: 268-77) at a surface density of between 4830 and 9221 RU. Excess reactive esters were quenched by injection of 70 μl of 1.0 M ethanolamine hydrochloride, pH 8.5. […] Dilutions and binding experiments were carried out in 50 mM HBS buffer containing 0.01 M HEPES pH 7.4, 0.15 M NaCl, 3 mM EDTA and 0.005% P-20. Data were collected for about […], and two 1-min pulse of 1M NaCl/50 mM NaOH were used to regenerate the surfaces. Human C1q was allowed to flow over an uncoated cell, and the sensorgrams from these blank runs subtracted from those obtained with IgG1-coupled chips.

[1] = target: T3, FLAG-tagged extracellular domain of human FcγRIIIA (F158 allotype) (human, UniProt P08637 17-208); assay: SPR (BIAcore 3000), IgG immobilised, soluble FLAG-tagged human FcγRIIIA, equilibrium fit
T3 construct: extracellular domain; Secreted from HEK 293 cells, purified on anti-FLAG M2 agarose; also called FLAG-tagged FcγRIIIA; Flag-tagged Human FcγRIIIA; not shown: FLAG tag
Procedure: Protein concentrations were calculated by the bicinchoninic acid methods. The different human IgG1s were coupled to the dextran matrix of a CM5 sensor chip (Pharmacia Biosensor) using an Amine Coupling Kit as described (Johnsson et al., 1991, Anal. Biochem. 198: 268-77) at a surface density of between 7765 and 8385 RU. Excess reactive esters were quenched by injection of 70 μl of 1.0 M ethanolamine hydrochloride, pH 8.5. […] Dilutions and binding experiments were carried out in 50 mM HBS buffer containing 0.01 M HEPES pH 7.4, 0.15 M NaCl, 3 mM EDTA and 0.005% P-20. Data were collected for about 50 min, and one 30 sec pulse of 5 mM HCl was used to regenerate the surfaces. Flag-tagged human FcγRIIIA was allowed to flow over an uncoated cell, and the sensorgrams from these blank runs subtracted from those obtained with IgG1-coupled chips.

T1 sequence (P29317 25-534 limits assumed): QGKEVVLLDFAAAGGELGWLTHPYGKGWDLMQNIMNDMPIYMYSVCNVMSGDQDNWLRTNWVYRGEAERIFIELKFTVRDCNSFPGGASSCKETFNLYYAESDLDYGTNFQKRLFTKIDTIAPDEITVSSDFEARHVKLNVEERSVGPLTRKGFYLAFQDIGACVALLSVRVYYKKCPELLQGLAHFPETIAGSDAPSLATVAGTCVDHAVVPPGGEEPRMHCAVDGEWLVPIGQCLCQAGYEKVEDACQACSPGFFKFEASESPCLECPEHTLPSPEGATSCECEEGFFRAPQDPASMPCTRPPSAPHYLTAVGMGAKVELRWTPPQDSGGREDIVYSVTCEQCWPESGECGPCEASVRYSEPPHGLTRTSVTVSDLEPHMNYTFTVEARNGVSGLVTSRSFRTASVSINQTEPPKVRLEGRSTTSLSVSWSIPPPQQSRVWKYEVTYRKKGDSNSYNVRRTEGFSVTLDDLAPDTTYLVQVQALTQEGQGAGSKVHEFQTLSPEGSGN
T2 sequence (P02745 23-245 limits assumed, chain 1 of 3): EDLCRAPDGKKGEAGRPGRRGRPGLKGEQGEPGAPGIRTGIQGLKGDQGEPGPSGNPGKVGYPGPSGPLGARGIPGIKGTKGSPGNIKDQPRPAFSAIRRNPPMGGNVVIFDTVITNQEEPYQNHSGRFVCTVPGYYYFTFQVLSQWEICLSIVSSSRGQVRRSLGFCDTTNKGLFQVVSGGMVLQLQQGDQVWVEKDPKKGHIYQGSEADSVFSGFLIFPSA
T2 sequence (P02746 28-253 limits assumed, chain 2 of 3): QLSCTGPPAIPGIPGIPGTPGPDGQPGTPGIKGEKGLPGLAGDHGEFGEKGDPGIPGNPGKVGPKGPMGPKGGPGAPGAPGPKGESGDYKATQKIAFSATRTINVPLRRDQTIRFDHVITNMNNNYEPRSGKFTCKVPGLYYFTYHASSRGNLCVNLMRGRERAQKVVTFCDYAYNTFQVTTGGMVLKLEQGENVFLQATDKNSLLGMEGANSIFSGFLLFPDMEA
T2 sequence (P02747 29-245 limits assumed, chain 3 of 3): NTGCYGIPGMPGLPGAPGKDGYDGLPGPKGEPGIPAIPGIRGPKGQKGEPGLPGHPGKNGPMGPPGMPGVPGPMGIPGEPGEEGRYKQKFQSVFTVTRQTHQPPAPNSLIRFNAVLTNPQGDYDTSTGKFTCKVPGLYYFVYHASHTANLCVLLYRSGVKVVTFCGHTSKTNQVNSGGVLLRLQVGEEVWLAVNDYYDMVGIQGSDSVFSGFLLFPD
T3 sequence (P08637 17-208): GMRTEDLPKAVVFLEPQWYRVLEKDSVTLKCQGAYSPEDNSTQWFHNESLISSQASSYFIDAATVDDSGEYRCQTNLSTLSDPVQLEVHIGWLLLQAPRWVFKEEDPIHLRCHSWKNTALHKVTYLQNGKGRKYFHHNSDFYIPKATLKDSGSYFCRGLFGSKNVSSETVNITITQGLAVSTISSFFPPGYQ

B1: mAb 12G3H11 (wild type hinge), human anti-human EphA2 IgG1 (antibody)
heavy: not shown
light: DIQMTQSPSSLSASVGDRVTITCRASQSISNNLHWYQQKPGKAPKLLIKYAFQSISGVPSRFSGSGSGTDFTFTISSLQPEDFATYYCQQANSWPLTFGGGTKVEIK
notes: domain: CH1;domain: lower hinge, CH2, CH3; Human IgG1/κ from HEK 293 cells; also called Wild type (12G3H11); not shown: human κ chain constant region
Kd (human EphA2-Fc): 0.0011 nM | Kd (human C1q (Quidel)): 89 nM | Kd [1]: 6050 nM

B2: 12G3H11 Fc variant 1-CD Invert (antibody, human IgG1)
heavy: not shown
light: DIQMTQSPSSLSASVGDRVTITCRASQSISNNLHWYQQKPGKAPKLLIKYAFQSISGVPSRFSGSGSGTDFTFTISSLQPEDFATYYCQQANSWPLTFGGGTKVEIK
notes: domain: CH1;domain: lower hinge, CH2, CH3; Human IgG1/κ; not shown: human κ chain constant region
Kd (human C1q (Quidel)): 92 nM

B3: 12G3H11 Fc variant 8-PP to GG Low (antibody, human IgG1)
heavy: not shown
light: DIQMTQSPSSLSASVGDRVTITCRASQSISNNLHWYQQKPGKAPKLLIKYAFQSISGVPSRFSGSGSGTDFTFTISSLQPEDFATYYCQQANSWPLTFGGGTKVEIK
notes: as for B2
Kd (human C1q (Quidel)): 155 nM | Kd [1]: 6400 nM

B4: 12G3H11 Fc variant 14-T to C Middle (antibody, human IgG1)
heavy: not shown
light: DIQMTQSPSSLSASVGDRVTITCRASQSISNNLHWYQQKPGKAPKLLIKYAFQSISGVPSRFSGSGSGTDFTFTISSLQPEDFATYYCQQANSWPLTFGGGTKVEIK
notes: as for B2
Kd (human EphA2-Fc): 0.0072 nM

B5: 12G3H11 Fc variant 17-DKTHT to PPPPP (antibody, human IgG1)
heavy: not shown
light: DIQMTQSPSSLSASVGDRVTITCRASQSISNNLHWYQQKPGKAPKLLIKYAFQSISGVPSRFSGSGSGTDFTFTISSLQPEDFATYYCQQANSWPLTFGGGTKVEIK
notes: as for B2
Kd (human C1q (Quidel)): 91 nM

B6: 12G3H11 Fc variant 18-EPKS to PPPP (antibody, human IgG1)
heavy: not shown
light: DIQMTQSPSSLSASVGDRVTITCRASQSISNNLHWYQQKPGKAPKLLIKYAFQSISGVPSRFSGSGSGTDFTFTISSLQPEDFATYYCQQANSWPLTFGGGTKVEIK
notes: as for B2
Kd (human EphA2-Fc): 0.0015 nM | Kd (human C1q (Quidel)): 75 nM

B7: 12G3H11 Fc variant 19-PP to WW Low (antibody, human IgG1)
heavy: not shown
light: DIQMTQSPSSLSASVGDRVTITCRASQSISNNLHWYQQKPGKAPKLLIKYAFQSISGVPSRFSGSGSGTDFTFTISSLQPEDFATYYCQQANSWPLTFGGGTKVEIK
notes: as for B2
Kd (human C1q (Quidel)): 274 nM

B8: 12G3H11 Fc variant 20-KT to WW Mid (antibody, human IgG1)
heavy: not shown
light: DIQMTQSPSSLSASVGDRVTITCRASQSISNNLHWYQQKPGKAPKLLIKYAFQSISGVPSRFSGSGSGTDFTFTISSLQPEDFATYYCQQANSWPLTFGGGTKVEIK
notes: as for B2
Kd (human C1q (Quidel)): 61 nM

B9: 12G3H11 Fc variant 5-GGG Insert Low (antibody, human IgG1)
heavy: not shown
light: DIQMTQSPSSLSASVGDRVTITCRASQSISNNLHWYQQKPGKAPKLLIKYAFQSISGVPSRFSGSGSGTDFTFTISSLQPEDFATYYCQQANSWPLTFGGGTKVEIK
notes: as for B2
Kd (human EphA2-Fc): 0.0008 nM | Kd (human C1q (Quidel)): 282 nM

B10: 12G3H11 Fc variant 6-GGG Insert High (antibody, human IgG1)
heavy: not shown
light: DIQMTQSPSSLSASVGDRVTITCRASQSISNNLHWYQQKPGKAPKLLIKYAFQSISGVPSRFSGSGSGTDFTFTISSLQPEDFATYYCQQANSWPLTFGGGTKVEIK
notes: as for B2
Kd (human EphA2-Fc): 0.0027 nM

B11: 12G3H11 Fc variant 13-2 AA Delete Mid (antibody, human IgG1)
heavy: not shown
light: DIQMTQSPSSLSASVGDRVTITCRASQSISNNLHWYQQKPGKAPKLLIKYAFQSISGVPSRFSGSGSGTDFTFTISSLQPEDFATYYCQQANSWPLTFGGGTKVEIK
notes: as for B2
Kd (human EphA2-Fc): 0.0017 nM
